Reference: publication PMC2832797 (Biochemistry, 2010)

Target: N-terminal His-tagged ubiquitin (15N-labelled) (UniProt P0CG48 1-76, 15N-labelled)
Assay: NMR titration

Kd: > 100 µM
B1: N-terminal His-tagged human alpha4 (amino acid residues 1-222) (domain or fragment, UniProt P78318 1-222, looked up)
chain: MAAEDELQLPRLPELFETGRQLLDEVEVATEPAGSRIVQEKVFKGLDLLEKAAEMLSQLDLFSRNEDLEEIASTDLKYLLVPAFQGALTMKQVNPSKRLDHLQRAREHFINYLTQCHCYHVAEFELPKTMNNSAENHTANSSMAYPSLVAMASQRQAKIQRYKQKKELEHRLSAMKSAVESGQADDERVREYYLLHLQRWIDISLEEIESIDQEIKILRERD
